Measured values taken from patent US20160068860A1, “TRANSGENIC PLANTS” (CONSEJO SUPERIOR DE INVESTIGACIONES CIENTIFICAS (CSIC), priority 2013, published 2016).
Where a chain is given by its changes, count along the chain named. Numbers in names are those of the source.

Tests used:
[1] = test system: Arabidopsis thaliana plants; experiment: Root growth assay of OE lines on ABA; type: in vivo; conditions: 10 μM ABA, 10 d after transfer
Experimental: Seedlings were grown on vertically oriented MS plates for 4 to 5 days. Afterwards, 20 plants were transferred to new MS plates lacking or supplemented with the indicated concentrations of ABA. The plates were scanned on a flatbed scanner after 10-d to produce image files suitable for quantitative analysis of root growth using the NIH software ImageJ v1.37. As an indicator of shoot growth, the maximum rosette radius was measured.

[2] = test system: 6His-ΔNPP2CA; experiment: Binding assay with 6His-ΔNPP2CA (Ni-affinity co-purification, size exclusion, pull-down); design: species or system Arabidopsis; conditions: for pull-down interaction with PP2CA: absence or presence of 100 μM ABA
Experimental: For small scale protein purifications, E. coli BL21 (DE3) cells transformed with the corresponding constructs were grown in 100 ml of LB medium to an OD600 of 0.6-0.8. At this point 1 mM isopropyl-β-D-thiogalactoside (IPTG) was added and the cells were harvested after overnight incubation at 20° C. Pellets were resuspended in lysis buffer (50 mM Tris pH 7.5, 250 mM KCl, 10% Glycerol, 1 mM β-mercaptoethanol) and lysed by sonication with a Branson Sonifier 250. The clear lysate obained after centrifugation was purified by Ni-affinity. A washing step was performed using 50 mM Tris, 250 mM KCl, 20% Glycerol, 30 mM imidazole and 1 mM […] washing buffer, and finally the protein was eluted using 50 mM Tris, 250 mM KCl, 20% Glycerol, 250 mM imidazole and 1 mM […] elution buffer For protein-protein interaction experiments, the pET28a_ΔNPP2CA, pETM11_PYL4 wt and pETM11_PYL4A194T plasmids were transformed into E. coli BL21 (DE3). A total of 8 ml of an overnight culture were sub-cultured into 800 ml fresh 2TY broth (16 g Bacto tryptone, 10 g yeast extract, 5 g NaCl per litre of solution) plus kanamycin (50 μg ml-1). Protein expression was induced with 0.3 mM IPTG and the cells were harvested after overnight incubation at 20° C. Pellets were resuspended in 25 mM TrisHCl pH 8.0, 50 mM NaCl, 50 mM imidazole, 5 mM […] and disrupted by sonication. After centrifugation (40 min, 40000 g) at 277 K, the clear supernatant was filtered (pore diameter […]; Millipore Corporation, Bedford, Mass., USA). The 6His-tagged proteins were purified using Ni-NTA Agarose (Qiagen) according to the manufacturer's instructions. The filtered supernatant was mixed with the previously equilibrated beads. After incubation, a washing step with ten volumes of 25 mM TrisHCl pH 8.0, 50 mM NaCl, 20 mM imidazole, 5 mM […] buffer was performed followed by the elution from the Ni2+ resin in a buffer with 500 mM imidazole. Imidazole was removed using a PD-10 column (GE Healthcare) and the His-tag was cleaved using TEV protease.
6His-ΔNPP2CA pellets were resuspended in 25 mM TrisHCl pH 8.0, 150 mM NaCl, 50 mM imidazole, 5 mM 3-mercaptoethanol, 5 mM Mg2+, mixed with 8 mg of either pure non-tagged (through TEV cleavage) PYL4 or PYL4A194T and disrupted by sonication. The crude extracts were treated as described above using His-Trap HP columns from GE Healthcare to the capture step according to the manufacturer's instructions. In all cases, the purified proteins were subjected to a size exclusion chromatography using a Superdex200 10/300 (Amersham Biosciences Limited, UK) to analyze the behavior in a gel filtration of each protein and to isolate the complex. […] After three washes, proteins were eluted by adding 500 mM imidazol and analyzed by SDS-PAGE.

[3] = test system: Arabidopsis thaliana plants; experiment: Stomatal aperture by whole leaf imaging; type: in vivo; conditions: OE plants; steady-state conditions
Experimental: 2-3 weeks-old seedlings grown in MS plates were used for water-loss assays. Four seedlings per genotype with similar growth, three independent experiments, were submitted to the drying atmosphere of a flow laminar hood. Kinetic analysis of waterloss was performed and represented as the percentage of initial fresh weight loss at each scored time point. Stomatal aperture measurements were done in leaves of 5-week-old plants grown under greenhouse conditions using whole leaf imaging (Chitrakar and Melotto, 2010). Staining of whole leaves with propidium iodide was conducted and the aperture of 30-40 stomata (ratio width/length, two independent experiments) was measured using a Leica TCS-SL confocal microscope.

[4] = test system: Arabidopsis thaliana plants; experiment: Whole-rosette stomatal conductance and transpiration measurements; type: in vivo; conditions: basal conditions; for stomatal conductance (Gst) and transpiration versus non-transformed Col: OE plants
Experimental: The Arabidopsis whole-rosette gas exchange measurement device, plant growth practice and custom written program to calculate transpiration and Gst for water vapour have been described previously (Kollist et al. 2007; Vahisalu et al., 2008). For gas-exchange experiments, 25-28-d-old plants (rosette area 6-18 cm2) were used. Until measurements, plants were grown in growth chambers (AR-66LX and AR-22L, Percival Scientific, IA, USA) at 12/12 photoperiod, 23/18° C. temperature, air relative humidity of 70-80% and 150 μmol m-2 s-1 light. During gas exchange measurements, temperature, air relatively humidity, photoperiod and light in the cuvettes were kept as similar as possible to the
values in growth chambers. Photographs of plants were taken before and after the experiment and rosette leaf area was calculated using the NIH software ImageJ 1.37v. Leaf area values for the intermediary experimental period were calculated using linear regression between starting and final leaf area.

[5] = test system: Arabidopsis thaliana plants; experiment: Drought stress under greenhouse conditions; type: in vivo; conditions: for survival after drought stress: OE lines, watering resumed at 19-d, scored at 23-d
Experimental: Plants grown under greenhouse conditions (10 individuals per experiment, three independent experiments) were grown under normal watering conditions for 15 days and then subjected to drought stress by stopping irrigation during 20 days. Next, watering was resumed and survival rate was calculated after 3 days by counting the percentage of plants that had more than four green leaves. Photographs were taken at the start of the experiment (day 0), after 16 and 19 days of drought, and 3 days after rewatering. Shoot-growth and water-loss were measured as follows. Quantification of shoot-growth was performed at 2, 5, 7 and 9 d after stopping irrigation (day 0) by measuring the maximum rosette radius of the plants. Water-loss measurements were done in two leaves from each plant that were detached 11 d after the start of the experiment, next weighted, incubated in de-mineralized water for 3 h and weighed again. The difference in weight was considered as water loss and related to the initial fresh weight (μl H2O/g FW).

[6] = test system: Arabidopsis thaliana plants; experiment: Dehydration treatment of seedlings in laminar flow hood; type: in vivo; conditions: OE plants; 15-d-old seedlings, 12 h of dehydration, scored 3-d afterwards
Experimental: 2-weeks-old seedlings grown in MS plates were used for these experiments. Twenty seedlings per genotype (two independent experiments) were submitted to the drying atmosphere of a flow laminar hood for 12 hours (25° C.±1° C., 25%±2% relative humidity), then rehydrated with 25 ml of water. Survival percentage was scored 3 days after rehydration by counting the percentage of plants that had at least four green leaves.

Molecule: PYL4: AtPYL4 wild type ABA receptor polypeptide (SEQ ID NO:3, At2g38310) [reference compound]
- ABA-mediated inhibition of root growth [1]: enhanced ABA-mediated inhibition of root growth compared to non-transformed plants
- pull-down interaction with PP2CA [2]: dependent on the addition of ABA
- stomatal aperture [3]: more closed than those of non-transformed Col plants
- stomatal conductance (Gst) and transpiration versus non-transformed Col [4]: lower Gst and transpiration values than non-transformed Col plants
- survival after drought stress [5]: around 30%

B1: PYL4H82R V97A (AtPYL H82 and V97A) (receptor)
chain: MLAVHRPSSAVSDGDSVQIPMMIASFQKRFPSLSRDSTAARFHTHEVGPNQCCSAVIQEISAPISTVWSVVRRFDNPQAYKRFLKSCSVIGGDGDNAGSLRQVHVVSGLPAASSTERLDILDDERHVISFSVVGGDHRLSNYRSVTTLHPSPISGTVVVESYVVDVPPGNTKEETCDFVDVIVRCNLQSLAKIAENTAAESKKKMSL
notes: also called PYL4H82R (found combined with V97A)
- survival after dehydration followed by rehydration [6]: ~25%

B2: PYL4A194T: AtPYL4 ABA receptor mutant polypeptide with A194T substitution (SEQ ID NO. 60; nucleic acid SEQ ID NO: 55); also over-expressed in plants (protein, listed as Arabidopsis thaliana)
chain: B1 chain with R82H, A97V, A194T
- survival after dehydration followed by rehydration [6]: approximately 40%
- ABA-mediated inhibition of root growth [1]: enhanced ABA-mediated inhibition of root growth compared to non-transformed plants
- co-purification with 6His-ΔNPP2CA by Ni-affinity chromatography ([2]; absence of ABA): could be co-purified
- complex with 6His-ΔNPP2CA by size exclusion chromatography ([2]; absence of ABA): 1:1 complex
- pull-down interaction with PP2CA [2]: ABA-independent binding
- stomatal aperture [3]: more closed than those of non-transformed Col plants
- stomatal conductance (Gst) and transpiration versus non-transformed Col [4]: lower Gst and transpiration values than non-transformed Col plants
- stomatal conductance (Gst) versus PYL4 OE plants [4]: lower Gst values than PYL4 OE plants
- survival after drought stress [5]: 60-70%
- plant growth (rosette radius) during drought ([5]; OE plants, subsequent 5-d after irrigation stopped): plant growth was reduced in non-transformed Col and PYL4 OE plants compared to PYL4A194T OE plants
